Measured values as given in the supplement of paper PMC10567573.

B1: VPS39 (parent)
chain: TTLLKCYLHTNVALVAPLLRLENN
B2: CHCHD3 (parent)
chain: YSGAYGASVSDEELKRRVAEELAL

Variants of: B1
Assay: protein stability index of a GFP-peptide fusion (GPS, HEK-293T) (PSI 1-6); higher = more stable
Conditions: c terminus: a fixed tail appended
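Further: lentivirally expressed fusions sorted by FACS into six bins by GFP to DsRed ratio, PSI derived from sequencing read proportions per bin multiplied by bin number.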

Protein stability index of substitutions, site by site:
T10: E 1.46; L 2.35; Y 2.73; W 1.94; H 2.79; R 3.11; G 3.27
Y7: D 2.27; N 2.9; F 2.26; H 3.18; V 2.59; R 1.76; S 3.15; E 1.73; P 1.7
A13: D 1.36; R 1.57; K 2.63; P 2.2; M 2.14; V 3.55
L4: H 2.36; R 2.48; S 3.47; G 3.33; P 1.74; T 2.83; D 1.35; M 3.92; V 3.82; F 3.81; K 2.01; N 1.25; Q 1.92; W 1.78
T2: A 1.61; R 2.85; L 3.5; Q 2.1
H9: Y 1.63; N 3.08; P 1.59; T 3.1; F 2.82
T1: I 2.46; Y 3.27; K 3.52; A 3.76; C 1.07; M 2.75
K5: E 2.22; P 1.88; S 4.1; T 2.57; N 2.49; H 2.48; F 1.07
C6: E 2.38; T 2.56; N 1.91; L 3.27; I 1.15; P 2.19; K 2.11; A 1.25; Q 3.64
V12: Q 1.95; D 1.97; F 2.91; T 3.04; S 3.9; N 2.06; K 1.45
N11: H 3.65; G 1.33; C 2.59; Q 4.1; K 2.86; I 1.85; D 4
L3: D 2.22; Y 3.01; W 3.19; R 2.57; T 2.58; K 2.1; N 3.03; Q 3.31; P 1.96; A 3.88; I 2.18; G 1.84
L8: D 1.75; S 1.44; P 1.13; W 2.17; Q 2.14; G 1.57; K 1; M 4.41; F 4.45; H 1.82; E 1.85; N 1.98; C 1.07; A 2.49; R 2.35; V 2.7; I 3.7; T 2.5

Variants of: B2
Assay: as above
Conditions: c terminus: a fixed tail appended

Protein stability index: each site, then its substitutions
A19: L 3.05; W 2.69; D 2.84; N 3.53; R 2.95; M 3.43; K 2.47; S 2.05; T 1.94; E 3.04; H 3.24; Y 2.27; F 2.54; V 3.43; P 3.04; G 3.1; C 2.67; Q 2.56; I 2.49
L22: A 2.5; Q 2.77; I 2.7; G 2.33; K 2.19; C 2.57; W 1.89; N 3.21; H 2.05; D 2.75; R 3.32; S 2.4; P 2.47; M 2.87; F 1.59; V 3.58; T 3.26; E 2.7; Y 1.94
L24: R 2.52; S 2.31; W 2.33; F 1.77; E 2.92; H 2.31; N 2.54; A 2.62; I 2.46; G 2.96; C 2.79; K 2.87; D 2.52; Y 2.5; Q 2.63; P 2.27; M 2.74; V 2.37; T 2.48
R17: L 2.76; N 2.61; C 2.06; Y 2.33; W 2.38; P 2.64; T 2.53; E 3.17; S 2.52; I 2.4; H 2.4; G 2.36; Q 2.77; K 2.31; V 2.63; M 1.94; D 2.54; F 2.12; A 2.57
E21: M 3.14; L 2.87; I 2.12; G 3.32; C 3.9; N 2.9; F 2.44; P 3.47; K 2.88; T 2.33; A 2.94; H 2.44; S 3.57; Q 3.05; V 2.19; Y 2.45; R 2.89; D 2.45; W 2.62
E13: W 2.56; T 2.66; R 2.26; I 2.2; G 2.18; P 2.47; F 2.49; Q 2.3; M 1.51; K 3.04; L 2.85; Y 1.76; V 2.38; H 2.67; N 2.44; S 2.26
R16: D 3.66; H 2.45; W 2.54; I 2.11; C 1.92; A 2.34; V 2.17; S 1.95; Y 2.19; L 2.75; N 2.65; K 2.65; Q 2.64; P 2.55; G 2.92; E 2.46; F 2.3; T 3.04; M 2.74
A23: R 2.26; S 2.19; C 3.08; H 2.71; N 2.97; Y 2.7; F 2.97; E 2.86; L 2.72; W 2.87; I 2.52; K 2.71; M 2.65; Q 2.58; V 2.55; P 3.31; T 3.13; G 3.02; D 2.76
V18: W 2.35; D 2.54; I 2.86; T 2.39; P 2.58; A 2.42; K 2.38; S 2.42; M 2.09; H 2.75; N 2.73; F 2.64; Y 2.09; C 2.76; R 2.44; L 2.93; E 2.59; Q 1.72
K15: L 2.52; F 2.11; T 2.22; D 3.38; N 2.19; I 2.5; P 2.29; Y 2.72; R 2.84; H 2.69; Q 2.83; S 3.47; M 2.61; E 3.33; W 2.04; C 3.2; V 2.65; A 2.99; G 2.58
L14: P 2.24; S 2.31; K 2.94; R 2.25; N 2.47; H 2.79; Y 3.56; A 1.78; W 2.34; M 2.19; I 2.41; F 2.53; D 3.3; C 2.77; G 3.46; T 3.12; V 2.63; E 3.48
E20: Y 2.27; M 2.16; K 2.9; F 1.99; I 2.4; C 2.48; W 1.85; H 2.59; V 1.57; S 3.03; Q 2.68; N 2.15; D 3.01; A 2.19; T 2.26; P 2.49; G 1.58; L 2.22; R 2.49
